Test in all cases: ELISA
(ELISA stands for enzyme-linked immunosorbent assay.)

Assay [1] deals with T1, SARS-CoV-2 prefusion stabilized trimer protein (WIV02 isolate spike protein) (UniProt P0DTC2 14-1213).
In assay [2] the target is T1, SARS-CoV-2 prefusion stabilized trimer …. The source holds these as a separate data set.
For another assay, the target named is T2, MERS spike protein (MERS-CoV, UniProt K9N5Q8 18-1296).
T2 chain: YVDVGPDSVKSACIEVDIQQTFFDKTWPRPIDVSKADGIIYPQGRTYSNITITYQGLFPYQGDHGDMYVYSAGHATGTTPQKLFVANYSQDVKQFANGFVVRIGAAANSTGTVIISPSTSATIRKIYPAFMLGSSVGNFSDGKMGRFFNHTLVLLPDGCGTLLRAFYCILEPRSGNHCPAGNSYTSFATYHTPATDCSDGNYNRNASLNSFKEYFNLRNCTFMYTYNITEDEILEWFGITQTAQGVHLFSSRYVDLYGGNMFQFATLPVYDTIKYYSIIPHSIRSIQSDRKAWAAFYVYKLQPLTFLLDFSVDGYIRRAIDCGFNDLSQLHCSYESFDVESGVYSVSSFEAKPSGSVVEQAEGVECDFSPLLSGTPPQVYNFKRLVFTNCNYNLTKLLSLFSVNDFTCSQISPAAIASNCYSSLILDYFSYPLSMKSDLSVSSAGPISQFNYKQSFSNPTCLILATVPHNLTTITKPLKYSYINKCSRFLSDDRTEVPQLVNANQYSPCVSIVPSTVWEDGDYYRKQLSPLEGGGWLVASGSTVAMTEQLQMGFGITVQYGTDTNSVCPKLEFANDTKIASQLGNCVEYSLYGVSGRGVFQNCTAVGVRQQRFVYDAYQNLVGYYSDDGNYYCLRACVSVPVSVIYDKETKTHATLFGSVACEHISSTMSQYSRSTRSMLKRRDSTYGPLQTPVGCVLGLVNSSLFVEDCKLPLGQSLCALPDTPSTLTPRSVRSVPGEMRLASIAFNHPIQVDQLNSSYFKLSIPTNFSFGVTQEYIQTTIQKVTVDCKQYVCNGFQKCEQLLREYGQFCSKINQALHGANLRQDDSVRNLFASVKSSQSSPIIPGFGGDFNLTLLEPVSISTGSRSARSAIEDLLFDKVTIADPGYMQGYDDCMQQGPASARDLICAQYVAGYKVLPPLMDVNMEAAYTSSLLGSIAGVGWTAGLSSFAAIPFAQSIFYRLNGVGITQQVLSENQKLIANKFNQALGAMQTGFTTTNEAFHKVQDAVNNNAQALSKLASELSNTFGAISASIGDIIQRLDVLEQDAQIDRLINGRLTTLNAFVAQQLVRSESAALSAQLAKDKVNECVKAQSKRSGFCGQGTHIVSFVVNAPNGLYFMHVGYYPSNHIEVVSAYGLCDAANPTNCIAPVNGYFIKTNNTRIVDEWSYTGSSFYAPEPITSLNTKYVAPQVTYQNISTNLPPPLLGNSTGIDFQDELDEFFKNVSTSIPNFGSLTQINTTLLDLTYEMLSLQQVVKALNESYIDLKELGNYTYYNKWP

For a further assay, the target named is SARS-CoV-1 spike protein (SARS-CoV-1, UniProt P59594 14-1195).
The target of a further assay is SARS-CoV-2 S2 domain (UniProt P0DTC2 686-1213).
The target in assay [3] is SARS-CoV-2 receptor binding domain (UniProt P0DTC2 319-541).
Another assay concerns the target T3, HKU1 spike protein (HCoV-HKU1).
T3 chain: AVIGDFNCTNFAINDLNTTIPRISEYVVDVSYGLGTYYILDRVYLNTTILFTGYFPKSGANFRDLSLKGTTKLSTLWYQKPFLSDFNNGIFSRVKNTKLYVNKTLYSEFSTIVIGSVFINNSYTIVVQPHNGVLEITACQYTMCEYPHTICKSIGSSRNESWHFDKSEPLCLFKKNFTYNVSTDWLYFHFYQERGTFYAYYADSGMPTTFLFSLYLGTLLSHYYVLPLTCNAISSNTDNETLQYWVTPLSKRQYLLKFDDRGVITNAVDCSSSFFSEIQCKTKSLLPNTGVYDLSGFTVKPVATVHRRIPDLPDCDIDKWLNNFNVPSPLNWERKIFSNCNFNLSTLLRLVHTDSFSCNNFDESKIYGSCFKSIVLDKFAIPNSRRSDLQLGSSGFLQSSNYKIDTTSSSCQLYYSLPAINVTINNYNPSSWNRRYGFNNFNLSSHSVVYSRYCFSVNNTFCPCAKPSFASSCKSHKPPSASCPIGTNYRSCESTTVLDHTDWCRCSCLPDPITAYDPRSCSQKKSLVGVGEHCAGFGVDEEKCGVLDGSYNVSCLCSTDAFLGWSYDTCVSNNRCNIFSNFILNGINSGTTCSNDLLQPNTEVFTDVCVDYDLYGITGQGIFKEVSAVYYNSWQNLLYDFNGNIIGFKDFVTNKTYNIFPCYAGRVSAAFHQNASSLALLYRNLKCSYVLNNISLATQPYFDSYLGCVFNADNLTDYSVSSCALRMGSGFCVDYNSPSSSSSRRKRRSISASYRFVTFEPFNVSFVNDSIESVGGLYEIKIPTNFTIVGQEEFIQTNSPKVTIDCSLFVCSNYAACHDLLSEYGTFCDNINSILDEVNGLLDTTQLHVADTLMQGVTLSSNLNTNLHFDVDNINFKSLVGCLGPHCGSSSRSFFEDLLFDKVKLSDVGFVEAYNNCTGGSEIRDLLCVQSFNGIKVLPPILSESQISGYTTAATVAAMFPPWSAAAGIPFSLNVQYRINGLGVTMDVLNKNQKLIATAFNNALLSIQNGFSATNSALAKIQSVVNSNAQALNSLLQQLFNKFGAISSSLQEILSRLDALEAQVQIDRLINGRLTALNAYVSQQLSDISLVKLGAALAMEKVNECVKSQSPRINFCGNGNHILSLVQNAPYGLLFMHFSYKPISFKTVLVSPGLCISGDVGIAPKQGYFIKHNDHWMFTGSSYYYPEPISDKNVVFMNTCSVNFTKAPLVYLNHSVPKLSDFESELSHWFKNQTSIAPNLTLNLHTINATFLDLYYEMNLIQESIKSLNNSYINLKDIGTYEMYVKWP

In general, EC50 refers to the concentration giving half of the maximal effect.

Like-named read-outs stand apart in the source and are kept apart here.

B1: 2-J9-A (antibody, V domains shown)
VH: EVQLQQSGPELVKPGASVKMSCKASGYTFTDYNIHWVKQSHGKSLEWIGYINPNNGGTDYNQKFQGKATLTVNKSSSTAYMELRSLTSEDSAVYYCARGGFYGNYGAYYGMDFWGQGTSVTVSS
VL: DIQMTQSPASLSASVGETVTITCRTSENIYSHLAWYQQTQGKSPQLLVYNTKTLAEGVPSRFTGSGSGTQFSLKINSLQPEDFGSYYCQHHYGIPPEFGGGTKLEIK
On to B1, for which the half-maximal effective concentration (EC50) in assay [1] worked out at 0.11 nM; in assay [2] it was 0.08 nM; with MERS spike protein, 1.83 nM; with SARS-CoV-1 spike protein, 0.17 nM; with SARS-CoV-2 S2 domain it was 0.05 nM.

B2: 4-N22-A (antibody, V domains shown)
VH: QVQLQQPGTELVKPGASVKLSCKASGYTFTNYWMYWVKQRPGQGLDWIGNINPSNGGTNYNEKFKSKATLTVDKSSSTAYMQLSSLTSEDSAVYYCARETGNYWGQGTTLTVSS
VL: DILMTQSPSSMSVSLGDTVSISCHASQGISSNIGWLQQKPGKSFKGLIYHGTNLEDGVPSRFSGSGSGADYSLTISSLESEDFADYYCVQYAQFPYTFGGGTKLEIK
As to B2, the concentration for a half-maximal effect (EC50) in assay [3] was 0.21 nM; in assay [2], 17.8 nM; with HKU1 spike protein, 15.8 nM.

B3: 10-B11-A (antibody, V domains shown)
VH: QVQLQQPGAELVKPGASVKVSCKASGYTFTSYWMHWVKQRPGQGLEWIGRIHPSDSDTNYYQKFKGKATLSVDKSSSTAYMQLSSLTSEDSAVYYCAIPLYSYDNSGGYYPMDYWGQGTSVTVSS
VL: DIVMTQSQKFMSTSVGDRVTITCKASQNVRTAVAWYQQKPGQSPKKLIYLASNRHTGVPDRFTGSGSGTDFTLAISNVQSEDLADYFCLQHWNYPFTFGSGTRLEIK
B3: the 50% effective concentration (EC50) with MERS spike protein was over 200 nM; with SARS-CoV-1 spike protein it was 20.8 nM; with SARS-CoV-2 S2 domain it was 1.13 nM; in the assay with HKU1 spike protein, over 200 nM.

Source of the values: patent publication US20240239875A1 (published 2024).
